Key:
[1] = target: T1, tPA (Homo sapiens, UniProt P00750); test: tPA/plasminogen activation assay; type: biochemical; settings: % of standardized positive control; 1:10 diluted samples
Method: (§1) β2-GPI was reduced and alkylated as follows. Sixhundredforty μl of β2-GPI stock was mixed with 640 μl of 8 M Urea (cooled solution) in 0.1 M Tris pH-8.2. The solution was degassed with N2 gas for approximately 6 minutes. From a 1 M DTT stock 12.8 μl was added to the solution, mixed and incubated for 3 hours at room temperature. A 1 M Iodoacetamide (Sigma; I-6125) was prepared, of which 25.6 μl was added to the β2-GPI reaction mixture. The solution was subsequently dialysed against PBS. […] Signals obtained with alkyl-β2gpi are compared with those obtained with native β2gpi starting material and with positive control acid/heat denatured amyloid-like misfolded γ-globulins.
Exiqon Peptide Immobilizer plates were blocked for 1 hour with PBS, 1% Tween20 and rinsed twice with distilled water. The conversion of the chromogenic substrate S-2251 (Chromogenix, Italy) by plasmin was kinetically measured at 37° C. on a Spectramax340 microplate reader at a wavelength of 405 nm. […] Denatured γ-globulins (100 μg/ml) with amyloid-like structure was used as reference and positive control. Lyophilized γ-globulins (Sigma, Mo., USA) were dissolved in a 1(:)1 volume ratio of 1,1,1,3,3,3-hexafluoro-2-propanol and trifluoro-acetic acid and subsequently dried under air. Dried γ-globulins was dissolved in H2O to a final concentration of 1 mg/ml and kept at room temperature for at least three days and subsequently stored at −20° C.
(§2) Protein therapeutics were obtained from the local hospital pharmacy and analyzed within the expiry limits as stated by the manufacturers.

[2] = ThT fluorescence enhancement by biopharmaceuticals; type: physicochemical; settings: +/− SD; five μL of protein therapeutic
Method: (§3) Fluorescence of ThT—protein/peptide adducts was measured as follows. […] Fluorescence was measured at 485 nm upon excitation at 435 nm. Background signals from buffer, buffer with ThT and protein/peptide solution without ThT were subtracted from corresponding measurements with protein solution incubated with ThT. Regularly, fluorescence of Aβ was used as a positive control, and fluorescence of FP10, a non-amyloid fibrin fragment^16, was used as a negative control. Fluorescence was measured in triplicate on a Hitachi F-4500 fluorescence spectrophotometer (Ltd., Tokyo, Japan).
as §1, §2
(§4) Fluorescence of Thioflavin T (ThT; Sigma T-3516, St. Louis, Mo., USA) and Congo red (CR; Aldrich Chemical Company Inc., Milwaukee, Wis., USA) was measured on a Hitachi F-4500 spectrophotometer at an excitation wavelength of 435 nm and emission wavelength of 485 nm for ThT and an excitation wavelength of 550 nm and emission wavelength of 595 nm for Congo red. […] Fluorescence was measured in triplicate. Background fluorescence of both protein in buffer and dye-solution were subtracted from the total fluorescence signal. Five μg/mL fibrillar amyloid-β(1-40) E22Q (Peptide Synthesis Facility of the Dutch Cancer Institute NKI, Amsterdam, The Netherlands) was used as a positive control in all fluorescence assays.

[3] = target: T1, tPA; test: Plasminogen-activation assay (tPA activation, S-2251); type: biochemical; settings: for tPA activating potential: Example 4, native, heat-denatured or alkylated preparation as labelled
Method: Plasmin (Pls) activity was assayed as described^16. Peptides and proteins that were tested for their stimulatory ability were regularly used at 100 μg ml^−1. […] Chromogenic substrate S-2251 (Chromogenix, Instrumentation Laboratory SpA, Milano, Italy) was used to measure Pls activity. Conversion of zymogen factor XII (#233490, Calbiochem, EMD Biosciences, Inc., San Diego, Calif.) to proteolytically active factor XII (factor XIIa) was assayed by measurement of the conversion of chromogenic substrate Chromozym-PK (Roche Diagnostics, Almere, The Netherlands) by kallikrein. Chromozym-PK was used at a concentration of 0.3 mM. Factor XII, human plasma prekallikrein (#529583, Calbiochem) and human plasma cofactor high-molecular weight kininogen (#422686, Calbiochem) were used at concentrations of 1 μg ml^−1. […] Assays were performed using microtiter plates (Costar, Cambridge, Mass., USA). Peptides and proteins were tested for their ability to activate factor XII. 150 μg ml^−1 kaolin, an established activator of factor XII was used as positive control and solvent (H2O) as negative control. The conversion of Chromozym-PK was recorded kinetically at 37° C. for at least 60 minutes. Assays were done in duplicate.
(§5) Formulated protein therapeutics were obtained from the local hospital pharmacy and were used as supplied by the manufacturers. […] Lyophilized therapeutics were dissolved according to the manufacturers recommendations. GH, zinc-insulin, Cealb and gelatin were stored at −20, 4, room temperature, 37 and 65° C. Other protein therapeutics were only kept at 4° C., and assayed for the presence of cross-β structure at shown time points. Enhancement in fluorescence of ThT and Congo red was measured with all formulated protein therapeutics. For this purpose, proteins were diluted to the indicated concentrations. […] Zinc-insulin was diluted tenfold in the activation assay, GH was diluted to a final concentration of 500 μg ml^−1. Activation of factor XII and prekallikrein by the therapeutics was tested in the chromogenic factor XII assay (see above). […] After coating, plates were blocked with Blocking Reagent (Roche Diagnostics, Almere, The Netherlands).
(§6) To prepare structurally altered ovalbumin (OVA) with amyloid cross-β structures, purified OVA (Sigma, A-7641, lot 071k7094) was heated to 85° C. One mg ml^−1 OVA in 67 mM NaPi buffer pH 7.0, 100 mM NaCl, was heated for two cycles in PCR cups in a PTC-200 thermal cycler (MJ Research, Inc., Waltham, Mass., USA). In each cycle, OVA was heated from 30 to 85° C. at a rate of 5° C./min. Native OVA (nOVA) and heat-denatured OVA (dOVA) were tested in the ThT fluorescence assay and in the Plg-activation assay. In the fluorescence assay and in the Plg-activation assay, 25 and 100 μg ml^−1 nOVA and dOVA were tested, respectively. TEM images of nOVA and dOVA were taken to check for the presence of large aggregates.
MSA (#126674, Calbiochem) was dissolved in 8 M urea, 100 mM Tris-HCl pH 8.2, at 10 mg ml^−1 final concentration. Dithiothreitol (DTT) was added to a final concentration of 10 mM. Air was replaced by N2 and the solution was incubated for 2 h at room temperature. Then, the solution was transferred to ice and iodoacetamide was added from a 1 M stock to a final concentration of 20 mM. […] Alkyl-MSA was dialyzed against H2O before use. […] In the ThT-fluorescence assay 25 μg ml^−1 nMSA and alkyl-MSA were tested, and in the Plg-activation assay 100 μg ml^−1 was tested. The presence of aggregates or fibrils was analyzed using TEM.
Lyophilized sterile glucagon was dissolved at 1 mg ml^−1 in H2O with 10 mM HCl. The solution was subsequently kept at 37° C. for 24 h, at 4° C. for 14 days and again at 37° C. for 9 days. […] TEM analysis was performed to assess the presence of large multimeric structures.

[4] = target: T1, tPA; test: tPA binding assay with immobilized biopharmaceuticals in an ELISA; settings: coated 1:10, one-site binding model
Method: Plates were washed twice with Tris buffered saline pH 7.2 containing 0.1% Tween20 (TBST) and blocked with PBS containing 1% Tween20 for 1 hour at room temperature. […] Plates were washed five times with TBST and incubated with peroxidase labeled anti-mouse immunoglobulins (RAMPO; DAKOCytomation, Glostrup, Denmark) diluted 1:3000 in PBST for 30 minutes at room temperature. Plates were washed five times with PBS 0.1% Tween20, and stained with 100 μL/well of tetramethyl-benzidine (TMB) substrate (Biosource Europe, Nivelles, Belgium). The reaction was terminated with 50 μL/well of 2 M H2SO4 and substrate conversion was read at 450 nm on a Spectramax340 microplate reader. Curves were fitted with a one-site binding model (GraphPad Prism version 4.02 for Windows, Graphpad Software, Calif., USA) from which Kd and Bmax were determined.
as §2

[5] = Congo red fluorescence enhancement by biopharmaceuticals; type: physicochemical; settings: +/− SD; five μL of protein therapeutic
Method: Background signals from buffer, buffer with Congo red and protein/peptide solution without Congo red were subtracted from corresponding measurements with protein solution incubated with Congo red. Fluorescence was measured in triplicate on a Hitachi F-4500 fluorescence spectrophotometer (Ltd., Tokyo, Japan).
as §2, §4

[6] = target: T2, LRP cl-IV binding to BSA-AGE (Bos taurus, UniProt P02769); test: ELISA, interference with LRP cl-IV binding to BSA-AGE; design: species or system human; settings: concentration series, 50 times diluted LRP cl-IV medium
T2 construct: made in house; host or cells: HEK293E/S (LRP cl-IV, culture supernatant)
T2 sequence (P02769 25-607): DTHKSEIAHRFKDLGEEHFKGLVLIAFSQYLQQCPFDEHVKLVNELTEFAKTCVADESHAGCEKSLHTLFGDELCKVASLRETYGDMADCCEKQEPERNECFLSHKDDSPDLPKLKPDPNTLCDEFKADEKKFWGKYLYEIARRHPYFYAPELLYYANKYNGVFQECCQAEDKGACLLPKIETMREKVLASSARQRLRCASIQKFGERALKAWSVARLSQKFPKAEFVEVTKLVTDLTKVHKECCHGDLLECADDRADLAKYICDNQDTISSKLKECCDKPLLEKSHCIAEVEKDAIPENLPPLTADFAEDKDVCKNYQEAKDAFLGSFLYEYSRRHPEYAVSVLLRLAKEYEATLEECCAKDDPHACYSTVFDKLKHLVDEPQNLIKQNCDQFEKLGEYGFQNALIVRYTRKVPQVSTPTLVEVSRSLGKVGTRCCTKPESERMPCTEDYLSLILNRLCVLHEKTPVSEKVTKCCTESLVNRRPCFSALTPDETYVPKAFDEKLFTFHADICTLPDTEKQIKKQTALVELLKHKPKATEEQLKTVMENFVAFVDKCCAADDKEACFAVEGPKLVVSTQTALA
Method: To test whether amyloid-like crossbeta structure binding compounds tPA, Congo red, Thioflavin T and Thioflavin S interfere with LRP cl-IV binding to BSA-AGE, concentration series of the potential inhibitory amyloid binding moieties were tested in the presence of 50 times diluted medium containing LRP cl-IV. The following inhibitors were used: tPA, Congo red, Thioflavin T (ThT) and Thioflavin S (ThS). As a control to tPA, K2P tPA, which lacks the amyloid-like misfolded protein binding finger domain, was included in the analyses. The influence of tPA and K2P tPA was tested in the presence of 10 mM ε-amino caproic acid to avoid binding of the kringle2 domain of tPA and K2P tPA to lysine- and arginine residues. Binding buffer and K2P tPA serve as negative controls in these inhibition studies. The concentration series was measured in triplicate, the values averaged and standard deviations calculated. Background signals obtained with buffer-coated wells were subtracted. Signals obtained with binding of LRP cluster IV to BSA-AGE was set arbitrarily to a reference binding of 100% and signals obtained with the concentration series of misfolded protein binding moieties and K2P tPA were calculated based on this set reference.

[7] = Thioflavin T fluorescence of protein solutions; type: physicochemical
Method: as §3, §5
ThT fluorescence of β2GPI was measured as follows. […] CL vesicles were prepared according to an established procedure. Briefly, CL was dried under a stream of nitrogen. The lipids were resuspended to a concentration of 10 mg ml^−1 in 25 mM Tris-HCl, pH 7.3, 150 mM NaCl by vigorous agitation, using a vortex. In the ThT fluorescence assay, fluorescence of β2GPI in buffer, of CL or DXS500k in buffer, of buffer and ThT alone, and of β2GPI-CL adducts and β2GPI-DXS500k adducts, with or without ThT, was recorded as described above (section ThT fluorescence). In addition, TEM images were recorded with CL, β2GPI from human plasma, with or without CL, and with recombinant β2GPI, as described^5.
as §6
MSA (#126674, Calbiochem) was dissolved in 8 M urea, 100 mM Tris-HCl pH 8.2, at 10 mg ml^−1 final concentration. Dithiothreitol (DTT) was added to a final concentration of 10 mM. Air was replaced by N2 and the solution was incubated for 2 h at room temperature. Then, the solution was transferred to ice and iodoacetamide was added from a 1 M stock to a final concentration of 20 mM. […] In the ThT-fluorescence assay 25 μg ml^−1 nMSA and alkyl-MSA were tested, and in the Plg-activation assay 100 μg ml^−1 was tested. The presence of aggregates or fibrils was analyzed using TEM. […]

[8] = Stability testing of biopharmaceuticals under denaturing conditions; type: physicochemical; settings: after exposure to harsh denaturing conditions (low pH or heat)
Method: For this purpose, 5 mg/mL Glucagon (Glucagen; Novo Nordisk Farma B. V., Alphen aan de Rijn, The Netherlands) was incubated at 37° C. in 0.01 M HCl for 48 hours. One mg/mL Etanercept (Enbrel; Wyeth Pharmaceuticals B. V., Hoofddorp, The Netherlands) in 67 mM sodium phosphate buffer, 100 mM NaCl pH 7.0 was gradually heated from 30° C. to 85° C. over a period of 12 minutes and afterwards cooled to 4° C. for 5 minutes, this treatment was repeated 4 times. Abciximab (Reopro; Centocor B. V., Leiden, The Netherlands) and Infliximab (Remicade; Schering-Plough B. V., Utrecht, The Netherlands) were incubated at 65° C. for 16 and 72 hours, respectively.

[9] = target: T1, tPA; test: tPA ELISA with coated protein therapeutics; type: binding; settings: ELISA, stored at the recommended temperature of 4° C.
Method: as §5

[10] = glucagon after heat-denaturation at 37° C. at low pH in HCl buffer

T1 sequence (P00750 36-562): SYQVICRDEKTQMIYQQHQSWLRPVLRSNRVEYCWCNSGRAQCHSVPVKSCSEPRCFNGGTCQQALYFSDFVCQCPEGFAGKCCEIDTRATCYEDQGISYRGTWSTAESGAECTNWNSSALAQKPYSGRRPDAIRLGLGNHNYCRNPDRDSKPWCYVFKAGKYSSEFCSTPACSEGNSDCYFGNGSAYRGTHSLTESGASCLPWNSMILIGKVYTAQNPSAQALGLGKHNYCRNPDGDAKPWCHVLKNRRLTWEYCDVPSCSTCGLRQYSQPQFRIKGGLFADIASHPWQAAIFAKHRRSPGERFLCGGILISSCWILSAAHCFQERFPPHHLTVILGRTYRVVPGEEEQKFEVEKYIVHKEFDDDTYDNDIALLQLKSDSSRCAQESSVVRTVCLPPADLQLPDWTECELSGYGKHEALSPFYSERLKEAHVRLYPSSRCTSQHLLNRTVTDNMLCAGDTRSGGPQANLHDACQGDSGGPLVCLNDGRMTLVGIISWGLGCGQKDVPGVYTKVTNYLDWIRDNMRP

Substance	tPA activation Max. Activation [1]	Fluorescence ThT [2]	Fluorescence CR [5]	amyloid-like properties (ThT-fluorescence and tPA activation) [8]	further results
Insulin Aspart: rapid acting human insulin analogue (NovoRapid Flexpen, Novo Nordisk)	70.93%	172 +/− 3 a.u.	81 +/− 2 a.u.	–	tPA activation ([3]; protein solutions stored at 4° C.): activated tPA to a lesser extent, but still significantly; tPA Binding Bmax [4]: 3.617 OD450 nm
Thioflavin S [ThS]	–	–	–	–	influence on binding of LRP cl-IV to BSA-AGE [6]: inhibit binding of LRP cl-IV to BSA-AGE to a large extent
Glucagon: human glucagon (Glucagen, Novo Nordisk)	11.25%	48 +/− 1 a.u.	–	amyloid-like properties are adopted	enhancement of ThT fluorescence [7, 10]: enhanced ThT fluorescence to a large extent; tPA activating potential [3]: some tPA activating potential; tPA activation [3, 10]: potent activator of tPA
Insulin Zn Suspension: recombinant human Zn2+-chelated insulin (Monotard, Novo Nordisk)	17.44%	387 +/− 72 a.u.	79 +/− 6 a.u.	–	binding of tPA [9]: binding of tPA was established; tPA Binding Bmax [4]: 0.7558 OD450 nm
heat/acid-denatured glucagon: glucagon kept at 37° C. in 10 mM HCl	–	–	–	–	presence of cross-β structure conformation ([7]; conclusion from ThT fluorescence, Plg-activation assay and TEM): comprise the cross-β structure conformation
Etanercept	0%	23 +/− 3 a.u.	–	amyloid-like properties are adopted	enhancement of ThT fluorescence ([7]; Example 4, native, heat-denatured or alkylated preparation as labelled): some ThT fluorescence enhancement; tPA activating potential [3]: some tPA activation
Infliximab: human-murine chimeric monoclonal antibody (Remicade-infliximab)	0%	19 +/− 1 a.u.	67 +/− 2 a.u.	amyloid-like properties are adopted	–
